# From patent publication US8975044B2, “Polynucleotides encoding for frizzled-binding agents and uses thereof” (OncoMed Pharmaceuticals, Inc., priority 2008, dated 2015)
# T1: FZD8 binding to Wnt3A (Homo sapiens, UniProt Q9H461)
# T1 construct: amino acids 1-157 of FZD8 linked in-frame to human IgG1 Fc
# T1 sequence (Q9H461 28-157): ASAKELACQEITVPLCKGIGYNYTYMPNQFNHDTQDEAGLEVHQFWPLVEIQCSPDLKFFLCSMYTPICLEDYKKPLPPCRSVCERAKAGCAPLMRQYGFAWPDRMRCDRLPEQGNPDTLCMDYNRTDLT
# B1: Fzd8-Fc: soluble FZD8-Fc containing the Fri domain (amino acids 1-157 of FZD8 linked in-frame to human IgG1 Fc) (protein)
# chain: T1 sequence (Q9H461 28-157)
# modifications: left off: a dimerising Fc or GST
# Biological target: T1, FZD8 binding to Wnt3A
# Assay: Blocking of FZD8-Fc binding to Wnt3A (protein A depletion, STF293 reporter readout)
# Type: biochemical
# Conditions: in the absence of 18R8
# Experimental: To assess the ability of 18R8 to block the binding of FZD to Wnt, 2 μl of 1.32 μg/μl soluble FZD8-Fc containing the Fri domain (amino acids 1-157 of FZD8 linked in-frame to human IgG1 Fc) was added to culture medium to bind Wnt3A (added as 20 μl of Wnt3A conditioned medium) either alone or in the presence of the 18R8 IgG antibody (added as 4 μl of 3.71 μg/μl). The mixtures were incubated either alone or in the presence of Protein A sepharose beads (GE Healthcare products; 20 μl of 50% solution in PBS) for two hrs at 4° C. After the incubation, the protein A beads (and any proteins complexed to the protein A beads) in each sample were removed by spinning and the supernatant was assayed for ability to induce 8×TCF luciferase activity. The supernatant was added to STF293 cells, which stably express 8×TCF (eight copies of the TCF-binding domain upstream of a firefly luciferase reporter gene) to measure canonical Wnt signaling levels and which were cultured in DMEM supplemented with antibiotics and 10% FCS. Eighteen hours following treatment of the STF293 cells, luciferase levels were measured using a dual luciferase assay kit (Promega; Madison, Wis.).
molecule,measurement,value
B1,effect on Wnt3A-stimulated signaling,inhibit the ability of Wnt3A to stimulate signaling
